Source: publication PMC2704923

Tests used:
[1] = system: CENP-N R124A (Homo sapiens); assay: EMSA
[2] = system: CENP-N K15A (Homo sapiens); assay: EMSA
[3] = target: H3^CATD mononucleosome, reconstituted with alpha-satellite DNA; assay: native gel or EMSA
CENP-N (Homo sapiens) = assay: EMSA

CENP-N (wildtype), 35S-labelled, in vitro translated, sequence (Q96H22 whole entry): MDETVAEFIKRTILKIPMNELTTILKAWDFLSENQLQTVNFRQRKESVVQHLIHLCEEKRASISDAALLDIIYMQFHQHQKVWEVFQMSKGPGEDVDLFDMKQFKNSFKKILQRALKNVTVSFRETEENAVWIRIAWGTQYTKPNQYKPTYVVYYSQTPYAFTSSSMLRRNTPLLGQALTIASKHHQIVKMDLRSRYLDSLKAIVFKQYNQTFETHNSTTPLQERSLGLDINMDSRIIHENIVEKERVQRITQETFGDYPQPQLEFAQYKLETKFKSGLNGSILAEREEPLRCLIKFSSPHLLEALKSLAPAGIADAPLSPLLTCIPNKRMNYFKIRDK

CENP-A nucleosome, alpha-satellite
Kd [1]: 72 nM | Kd [2]: 297 nM

CENP-N (wildtype), 35S-labelled, in vitro translated (from UniProt Q96H22 1-339) (natural protein)
Kd [3]: 163 nM

H3CATD nucleosome, alpha-satellite
Kd (CENP-N (Homo sapiens)): 163 nM
